Laboratory results published in patent US20110179509A1, “Use of Afamin for Treating Fertility Disorders” (VITATEQ BIOTECHNOLOGY GMBH, priority 2008, published 2011).
Entries after “also recorded” stand apart in the source; their conditions may differ.

B1: afamin: 75-kDa human serum glycoprotein with vitamin E-binding properties, member of the albumin gene family (protein, UniProt P43652 22-599, looked up)
Afamin: LPTQPRDIENFNSTQKFIEDNIEYITIIAFAQYVQEATFEEMEKLVKDMVEYKDRCMADKTLPECSKLPNNVLQEKICAMEGLPQKHNFSHCCSKVDAQRRLCFFYNKKSDVGFLPPFPTLDPEEKCQAYESNRESLLNHFLYEVARRNPFVFAPTLLTVAVHFEEVAKSCCEEQNKVNCLQTRAIPVTQYLKAFSSYQKHVCGALLKFGTKVVHFIYIAILSQKFPKIEFKELISLVEDVSSNYDGCCEGDVVQCIRDTSKVMNHICSKQDSISSKIKECCEKKIPERGQCIINSNKDDRPKDLSLREGKFTDSENVCQERDADPDTFFAKFTFEYSRRHPDLSIPELLRIVQIYKDLLRNCCNTENPPGCYRYAEDKFNETTEKSLKMVQQECKHFQNLGKDGLKYHYLIRLTKIAPQLSTEELVSLGEKMVTAFTTCCTLSEEFACVDNLADLVFGELCGVNENRTINPAVDHCCKTNFAFRRPCFESLKADKTYVPPPFSQDLFTFHADMCQSQNEELQRKTDRFLVNLVKLKHELTDEELQSLFTNFANVVDKCCKAESPEVCFNEESPKIGN
B2: recombinantly produced murine afamin: murine afamin expressed by stable transfection of CHO cells with mouse afamin cDNA, purified from serum-free culture supernatants (protein, UniProt O89020 22-608, looked up)
Afamin: LPTKPQDVDHFNATQKFIDENTTYLAIIAFSQYVQEASFDEVETLVKVMLDYRDRCWADNTLPECSKTANDAIQDMLCDMEGLPQKHNFSHCCGKAGFPRRLCFFYNKKANVGFLPPFPTLDPEEKCQAYKNNSESFLHLYMYEVARRNPFVFAPVLLAVAAWFEEAATTCCEQQQKATCFQAKAAPITQYLKASSSYQRNVCGALIKFGPKVLNSINVAVFSKKFPKIGFKDLTTLLEDVSSMYEGCCEGDVVHCIRSQSQVVNHICSKQDSISSKIKVCCEKKTLEREACIINANKDDRPEGLSLREAKFTESENVCQERDSDPDKFFAEFIYEYSRRHPDLSTPELLRITKVYMDFLEDCCSRENPAGCYRHVEDKFNETTQRSLAMVQQECKQFQELGKDTLQRHFLVKFTKAAPQLPMEELVSLSKEMVAALTTCCTLSDEFACVDNLADLVLGELCGVNTNRTINPAVDHCCKTDFAFRRHCFEHLKADTTYELPSVSALVSALHTDWCQPRKEDLQNKKHRFLVNLVKWMPGITDEEWLCLFTKFTAAREECSEVQEPESCFSPESSKTGDESQATEKQR

Key:
[1] = human afamin binding alpha- and gamma-tocopherol, radioligand assay; read-out: binding-dissociation constant; cited from earlier work
[2] = test system: infertile male chimeric animals; assay: afamin substitution via intraperitoneal minipump in infertile male chimeric afamin knock-out mice: fertility and testes histology; assay type: in vivo, mouse
Description: Chimeric mice from ES cells carrying the disrupted afamin allele were generated by microinjection of 10-15 ES cells into 3.5-day-old embryos of the C57B1/J mouse strain. Chimeric animals were mated to C57B1/J or 129/Sv partners, respectively, to establish the afamin mutant allele on a C57B1/J×129/Sv hybrid and on a 129/Sv inbred genetic background. Loss of afamin mRNA and protein was checked by Northern and Western blot analysis.
In order to confirm the role of afamin for fertility, infertile male chimeric animals were substituted with recombinantly produced murine afamin via minipump, which was implanted intraperitonially and released afamin continuously into the organism for 28 days (which corresponds to the time required for spermiogenesis in mice). Control mice received physiological saline solution instead of afamin. At weekly time intervals, plasma was obtained from substituted mice. […] Offspring were, however, exclusively wild-type not carrying the recombinant allele.

[3] = afamin plasma concentration by ELISA during afamin substitution; assay type: in vivo, mouse; details: infertile male chimeric mice, intraperitoneal minipump, continuous release for 28 days, plasma at weekly intervals
Description: In order to analyse the afamin concentrations in the partial knock-out mice, an ELISA kit for quantifying afamin in mouse plasma was developed. For that purpose, a polyclonal antibody against mouse afamin was obtained by immunising rabbits with purified recombinant murine afamin. Recombinant expression of murine afamin was achieved by stable transfection of CHO cells with mouse afamin cDNA followed by purification from serum-free culture supernatants. The obtained polyclonal anti-mouse afamin antibody was purified by affinity chromatography on a sepharose column to which recombinant afamin was covalently bound. This affinity-purified antibody was used to coat ELISA-plates and, after conjugation with horse-radish peroxidase, also for detection using an appropriate substrate reaction. Purified recombinant afamin (quantified by amino acid compositional analysis) served as standard. With this ELISA, an afamin plasma concentration in the range of 6-10 mg/l was measured in wild-type mice which is roughly only 10% of respective plasma levels in humans (3).
In order to confirm the role of afamin for fertility, infertile male chimeric animals were substituted with recombinantly produced murine afamin via minipump, which was implanted intraperitonially and released afamin continuously into the organism for 28 days (which corresponds to the time required for spermiogenesis in mice). […]

Row | Molecule | Kd [1] | histological examination of testes, spermiogenesis ([2]; after afamin substitution and sacrifice) | fertility (mating with female wild-type mice) ([2]; intraperitoneal minipump, 28 days substitution) | plasma concentrations of afamin [3]
1 | B1 | 18 µM | – | – | –
2 | B2 | – | restoration of normal testes histology, spermiogenesis; also recorded: completely normalised testes tissue and spermiogenesis | restoration of normal testes histology, spermiogenesis and fertility; also recorded: resulted in several pregnancies and births | immediately rose to physiological levels and stayed constant during the infusion period
